Reference: patent US5604098

Target: T1, CviJ I restriction endonuclease (Chlorella virus IL-3A (infected Chlorella NC64A)) (UniProt P52283)
T1 sequence: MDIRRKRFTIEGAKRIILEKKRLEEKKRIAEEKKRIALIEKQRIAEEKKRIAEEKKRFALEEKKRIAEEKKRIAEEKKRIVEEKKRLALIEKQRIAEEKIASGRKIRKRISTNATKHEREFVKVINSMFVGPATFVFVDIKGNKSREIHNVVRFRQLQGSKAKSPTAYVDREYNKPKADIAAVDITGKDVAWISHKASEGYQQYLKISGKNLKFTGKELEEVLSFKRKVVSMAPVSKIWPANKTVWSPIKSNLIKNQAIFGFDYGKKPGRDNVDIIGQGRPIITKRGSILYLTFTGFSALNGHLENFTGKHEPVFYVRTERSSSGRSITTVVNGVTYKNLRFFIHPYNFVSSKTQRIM
Assay: cleavage_in_vitro
Conditions: for activity (% of cleaved junctions): CviJ I* complete digest; for activity (% of cloned junctions): CviJ I** partial digest

**Q.** Which activity (% of cleaved junctions) (13 cleaved, 0 not cleaved) does the source give for GGCT (double strand) [GGCT site] here?
**A.** The activity (% of cleaved junctions) was 6.5.

**Q.** And the activity (% of cloned junctions)?
**A.** Its activity (% of cloned junctions) is 15.8.

**Q.** Which activity (% of cleaved junctions) (23 cleaved, 1 not cleaved) does the source give for AGCC (double strand) [AGCC site] here?
**A.** The activity (% of cleaved junctions) was 11.5.

**Q.** And the activity (% of cloned junctions) (Mg, ATP, DTT, 20% DMSO, low salt)?
**A.** The activity (% of cloned junctions) was 17.1.

**Q.** For AGCT (double strand) [AGCT site], which activity (% of cleaved junctions) (35 cleaved, 0 not cleaved) is on record?
**A.** The activity (% of cleaved junctions) was 17.5.

**Q.** And the activity (% of cloned junctions)?
**A.** The activity (% of cloned junctions) was 32.9.

**Q.** Which activity (% of cleaved junctions) (19 not cleaved) does the source give for TGCA (double strand) [TGCA site] here?
**A.** The activity (% of cleaved junctions) was 0.

**Q.** And the activity (% of cloned junctions)?
**A.** Its activity (% of cloned junctions) is 0.

**Q.** For GGCA (double strand) [GGCA site], which activity (% of cleaved junctions) (11 cleaved, 3 not cleaved) is on record?
**A.** The activity (% of cleaved junctions) was 5.5.

**Q.** And the activity (% of cloned junctions)?
**A.** Its activity (% of cloned junctions) is 0.

**Q.** Which results are given for AGCG (double strand) [AGCG site]?
**A.** activity (% of cleaved junctions) (12 cleaved, 11 not cleaved): 6; activity (% of cloned junctions): 0

**Q.** Which activity (% of cleaved junctions) (17 cleaved, 7 not cleaved) does the source give for CGCT (double strand) [CGCT site] here?
**A.** Its activity (% of cleaved junctions) is 8.5.

**Q.** What about the activity (% of cloned junctions) of the same sequence?
**A.** Its activity (% of cloned junctions) is 2.6.

**Q.** For TGCG (double strand) [TGCG site], which activity (% of cleaved junctions) (3 not cleaved) is on record?
**A.** The activity (% of cleaved junctions) was 0.

**Q.** What about the activity (% of cloned junctions) of the same sequence?
**A.** Its activity (% of cloned junctions) is 0.

**Q.** CGCG (double strand) [CGCG site] was tested. Which activity (% of cleaved junctions) (27 not cleaved) did it give?
**A.** The activity (% of cleaved junctions) was 0.

**Q.** And the activity (% of cloned junctions)?
**A.** Its activity (% of cloned junctions) is 0.

**Q.** With TGCT (double strand) [TGCT site] as the sequence, how does the activity (% of cleaved junctions) (10 cleaved, 5 not cleaved) read?
**A.** Its activity (% of cleaved junctions) is 5.

**Q.** And the activity (% of cloned junctions)?
**A.** Its activity (% of cloned junctions) is 1.3.

**Q.** What does the source list for CGCC (double strand) [CGCC site]?
**A.** activity (% of cleaved junctions) (11 cleaved, 4 not cleaved): 5.5; activity (% of cloned junctions): 0

**Q.** What does the source list for CGCA (double strand) [CGCA site]?
**A.** activity (% of cleaved junctions) (12 not cleaved): 0; activity (% of cloned junctions): 0

**Q.** With GGCC (double strand) [GGCC site] as the sequence, how does the activity (% of cleaved junctions) (24 cleaved, 1 not cleaved) read?
**A.** Its activity (% of cleaved junctions) is 12.

**Q.** What about the activity (% of cloned junctions) of the same sequence?
**A.** Its activity (% of cloned junctions) is 21.1.

**Q.** How did the activity (% of cleaved junctions) (13 cleaved, 5 not cleaved) turn out when AGCA (double strand) [AGCA site] was run?
**A.** The activity (% of cleaved junctions) was 6.5.

**Q.** And the activity (% of cloned junctions)?
**A.** The activity (% of cloned junctions) was 1.3.

**Q.** What does the source list for GGCG (double strand) [GGCG site]?
**A.** activity (% of cleaved junctions) (18 cleaved, 8 not cleaved): 9; activity (% of cloned junctions): 5.2

**Q.** What does the source list for TGCC (double strand) [TGCC site]?
**A.** activity (% of cleaved junctions) (13 cleaved, 10 not cleaved): 6.5; activity (% of cloned junctions): 2.6
